# Measured values reported in paper PMC5057122, “Arabidopsis aldehyde dehydrogenase 10 family members confer salt tolerance through putrescine-derived 4-aminobutyrate (GABA) production” (Scientific Reports, 2016).
# T1: AtALDH10A8 (Arabidopsis thaliana, UniProt Q9S795)
# T1 construct: gene ALDH10A8
# T1 sequence (Q9S795 1-501): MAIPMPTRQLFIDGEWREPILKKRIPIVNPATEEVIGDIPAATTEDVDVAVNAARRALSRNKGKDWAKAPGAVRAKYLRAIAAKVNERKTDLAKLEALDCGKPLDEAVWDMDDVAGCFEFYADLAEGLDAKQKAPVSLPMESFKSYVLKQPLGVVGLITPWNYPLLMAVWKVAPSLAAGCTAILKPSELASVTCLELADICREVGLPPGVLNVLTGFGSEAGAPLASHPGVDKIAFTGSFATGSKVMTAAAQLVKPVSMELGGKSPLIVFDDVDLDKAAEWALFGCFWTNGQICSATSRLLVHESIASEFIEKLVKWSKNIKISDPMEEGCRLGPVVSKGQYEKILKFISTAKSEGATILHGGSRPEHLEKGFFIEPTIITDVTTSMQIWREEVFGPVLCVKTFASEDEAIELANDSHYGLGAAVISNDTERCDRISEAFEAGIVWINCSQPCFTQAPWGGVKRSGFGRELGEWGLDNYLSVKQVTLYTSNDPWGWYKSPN
# T2: AtALDH10A9 (Arabidopsis thaliana, UniProt Q9STS1)
# T2 construct: gene ALDH10A9
# T2 sequence (Q9STS1 1-503): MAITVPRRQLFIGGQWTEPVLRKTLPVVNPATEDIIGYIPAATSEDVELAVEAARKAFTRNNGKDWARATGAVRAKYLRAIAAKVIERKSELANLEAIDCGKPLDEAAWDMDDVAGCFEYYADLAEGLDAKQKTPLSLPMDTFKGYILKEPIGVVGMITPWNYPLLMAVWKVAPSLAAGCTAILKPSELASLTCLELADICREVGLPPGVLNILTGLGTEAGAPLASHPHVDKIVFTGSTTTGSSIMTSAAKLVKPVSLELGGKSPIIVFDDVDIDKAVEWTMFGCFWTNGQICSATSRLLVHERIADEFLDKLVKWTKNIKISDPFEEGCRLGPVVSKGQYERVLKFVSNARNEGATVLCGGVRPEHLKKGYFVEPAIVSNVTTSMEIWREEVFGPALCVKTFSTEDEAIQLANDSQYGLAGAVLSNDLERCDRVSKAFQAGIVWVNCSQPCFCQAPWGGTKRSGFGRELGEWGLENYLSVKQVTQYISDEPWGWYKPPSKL
# B1: AtALDH10A8 (Arabidopsis thaliana) (protein)
# chain: T1 sequence (Q9S795 1-501)
# B2: AtALDH10A9 (Arabidopsis thaliana) (protein)
# chain: T2 sequence (Q9STS1 1-503)
# Assays:
# [1] = biological target: T1, AtALDH10A8; test: NADH formation at […] nm, substrate-inhibition Michaelis-Menten fit; format: biochemical; settings: substrate inhibition (partial); 100 μM NAD+, pH 8.5, room temperature; apparent
# [2] = biological target: T2, AtALDH10A9; test: as above; format: biochemical; settings: 500 μM NAD+, pH 9.5, room temperature, apparent
# [3] = substrate: NC(=O)c1ccc[n+]([C@@H]2O[C@H](COP(=O)(O)OP(=O)(O)OC[C@H]3O[C@@H](n4cnc5c(N)ncnc54)[C@H](O)[C@@H]3O)[C@@H](O)[C@H]2O)c1; test: purified protein; format: biochemical, Arabidopsis thaliana; settings: apparent, varied: cofactor
# [4] = substrate: NCCC=O; test: purified protein; format: biochemical, Arabidopsis thaliana; settings: apparent
# [5] = substrate: NCCCC=O; test: purified protein; format: biochemical, Arabidopsis thaliana; settings: apparent
# [6] = co-substrate 7 μM APAL (subsaturating), pH 8.5, room temperature
# [7] = 100 μM NAD+, pH 8.5, room temperature
# [8] = co-substrate 30 μM APAL (subsaturating), pH 9.5, room temperature
# [9] = 500 μM NAD+, pH 9.5, room temperature
molecule,measurement,setting,value
NCCC=O [APAL],AtALDH10A8 / Kis,[1],5.5 ± 0.3 µM
same,AtALDH10A9 / Kis,[2],19000 ± 5800 µM
NCCCC=O [ABAL],AtALDH10A8 / Kis,[1],55.7 ± 26.0 µM
same,AtALDH10A9 / Kis,[2],2600 ± 750 µM
B1,Km,[3]; [6],13.2 ± 1.5 µM
same,kcat/Km,[3]; [6],260000 M⁻¹ s⁻¹
same,Km,[4]; [7],14.4 ± 2.7 µM
same,kcat/Km,[4]; [7],1.03e+06 M⁻¹ s⁻¹
same,Km,[5]; [7],25.1 ± 2.5 µM
same,kcat/Km,[5]; [7],60000 M⁻¹ s⁻¹
B2,Km,[3]; [8],86 ± 16 µM
same,kcat/Km,[3]; [8],150000 M⁻¹ s⁻¹
same,Km,[4]; [9],17.3 ± 4.1 µM
same,kcat/Km,[4]; [9],820000 M⁻¹ s⁻¹
same,Km,[5]; [9],460 ± 65 µM
same,kcat/Km,[5]; [9],20000 M⁻¹ s⁻¹
